In patent US20240228568A1 (CENTRO DE INGENIER A GEN TICA Y BIOTECNOLOG A, published 2024):
Where no end group is shown, it is not given here. [ ]: non-standard residue; d: D form.

Assays:
[1] = molecular target: T1, IL-15 receptor subunit on CTLL-2 cells; test: cell-based or functional assay
T1 sequence (Q60819 whole entry, species assumed, looked up): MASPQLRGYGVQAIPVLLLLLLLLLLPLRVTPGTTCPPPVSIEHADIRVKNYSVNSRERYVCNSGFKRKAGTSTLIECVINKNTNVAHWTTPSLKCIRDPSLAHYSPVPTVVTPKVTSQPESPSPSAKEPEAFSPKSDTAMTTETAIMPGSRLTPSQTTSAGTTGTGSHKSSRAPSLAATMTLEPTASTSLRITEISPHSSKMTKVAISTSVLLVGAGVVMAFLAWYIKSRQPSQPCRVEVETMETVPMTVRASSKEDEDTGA

[2] = molecular target: T1, IL-15 receptor subunit on CTLL-2 cells; test: cell-based or functional assay; remark: listed apart in the source

## KVTAMKCFLL (not fully specified (C-terminus)) [Peptide 1]
[1]
  IC50 in the CTLL-2 cell proliferation assay: 130 µM

## KVT[dA]MKCFLL-NH2 (also: disulfide-linked homodimer through the Cys) [Peptide 12]
[2]
  antagonist effect on IL-15-induced proliferation, fold against Peptide 1: 16 times
  antagonist effect on IL-15-induced proliferation, fold against Peptide 5: 3 times
[1]
  IC50 in the CTLL-2 cell proliferation assay: 8 µM

## KVT[dA]MKCFLL-NH2 [Peptide 5]
[1]
  IC50 in the CTLL-2 cell proliferation assay: 28 µM
